Measured values from the supplement of paper PMC9170038.

System: K4 kissing-loop RNA reporter
Assay: apparent KD of K4 kissing-loop reporter; higher = weaker reporter binding
Settings: Eterna round: R107
Protocol: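 RNA-MaP round R107: designed RNA switches with theophylline, tryptophan, arginine or FMN aptamers are transcribed on-chip within common flanks. They are titrated with a labelled K4 kissing-loop RNA reporter in RNA-MaP buffer (100 mM Tris pH 7.5, 80 mM KCl, 4 mM MgCl2), without ligand or with the indicated ligand. Median apparent KD per design.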

[1] = input ligand: theophylline 20 uM
[2] = input ligand: tryptophan 2.4 mM
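Also: bound reporter read as fluorescence of individual clusters on recovered sequencing chips by microscopy, with normalized cluster intensities fitted with a binding model.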

Row | Sequence | apparent KD of K4 kissing-loop reporter (input ligand: FMN 200 uM) | apparent KD of K4 kissing-loop reporter (input ligand: arginine 13.2 mM) | apparent KD of K4 kissing-loop reporter (input ligand: none) | apparent KD of K4 kissing-loop reporter [1] | apparent KD of K4 kissing-loop reporter [2]
1 | CCUAUCUCAUACGAUACCAGUGAAAUAAUAUUUAUAAGCAGUGAUGUUGCAUUCCAAGAACACCCUUGGCAGCGUAUGGGAUAGG [Ex Theophylline B K4 19] | 168 nM | 187 nM | 178 nM | 189 nM | 143 nM
2 | AGGUGCUACGGAAGGAGCGCACCAGUGAUGUUGGUGUGUGACCGUGACAUGGCAGUCAAGGUGCAGGUAGGUCGCCGUGGCCUUU [Geeseris] | 137 nM | 108 nM | 131 nM | 138 nM | 136 nM
3 | GCCGUACGCAUGGAUACCAGCAAUCAAACGUCAUGCGAAGUGAUGUUUCGCUUACGGUAGUGCCCUUGGCAGCCAUGCGUACGGC | 142 nM | 124 nM | 123 nM | 91.2 nM | 130 nM
4 | GGUGCUGUCUGUGCCGCCCUCCUCGUCCCUCGAGGACCGGUACGGCCGCCACUCGAGUGAUGUUCGGGUAGCCCUCCCUGCCAGC [BDazzled - #21 Exc. Tryptophan A] | 493 nM | 402 nM | 548 nM | 438 nM | 492 nM
5 | UAUUUAAAUAAAAUAAAAUAAAUUGCUGAUACCAGAGCCAAUUGGCUCCCUUGGCAGCGGAUCGAGUGAUGUUCGUAAAAUUUAU [AK2 SS Theophylline A] | 28.5 nM | 65.4 nM | 29.6 nM | 61.5 nM | 30.3 nM
6 | CAUACGCAUGGAGGAUAUGAGAUUUCUCAUAUUAUUUAAUAUUCUCAGUGAUGUUGAGAAUUAAACUCAGAAGGCCAUGUGUAUG [Ex FMN B 4] | 296 nM | 149 nM | 164 nM | 181 nM | 163 nM
7 | CUGUAUCAUAUUGAUACCAGAGAAAGAACCAGUGAUGUUGGAAAAGACGAAUAAAUUAUACUCCCUUGGCAGCGGAAAUGAACAG [Totally accidental] | 73 nM | 85.6 nM | 75.8 nM | 105 nM | 59.9 nM
8 | GUCCGGAAGGCGGCUUCACGACCGUGGUGGGAGGAUAUGUCUAAGGACAGAAGGCCCAGUGAUGUUGGGCUUUAGGAGAGCCAUA [Ragele] | 310 nM | 128 nM | 143 nM | 116 nM | 118 nM
9 | AGGCACGAGCAAGGAUAUCGAGUAGAGUGAUGUUCUGCCUGGGUUGGCCCGAAAGGGCCUUCCCAGCGAGAAGGUGCUCGUGCCU [#2 Same State - FMN A Attempt #9 (HarryS)] | 222 nM | 588 nM | 766 nM | 492 nM | 863 nM
10 | AAAUAUUCGAGUGAUGUUCGAAUAAUAUCAGAGGAUAUGCAUAAAAGCAGAAGGCUGUAUUACUUUUUGUUACGAAAUUUUAUAA [JR_SSFMNA_Sub020] | 111 nM | 115 nM | 102 nM | 118 nM | 115 nM
11 | AGAACUGUCUGAGAUACCAGCCAAGGAGUGAUGUUCCGGCUCGACGAAACGUCGAGCCAUGGCCCUUGGCAGCUCAGACAGUUCA [Omei KL Theo B SS A v2] | 249 nM | 116 nM | 195 nM | 191 nM | 102 nM
12 | CGUUUAUAGCAGGAUACCAGUACGGAUAAGGUACGUUAAUAGUAGAGUGAUGUUCUAAAGUACCCUUGGCAGCUUAGAGUGAGUG [#20 K4 Theophylline B Exclusion] | 90.3 nM | 147 nM | 142 nM | 126 nM | 92.2 nM
13 | AAAUAGCAGCAACGAGUGAUGUUCGACGAUACCAGCCUCGAUAGAGGCCCUUGGCAGCGUAAAUGAUCACAAAGCCAAGGGCUGC [#SwitchBubble 2] | 382 nM | 372 nM | 458 nM | 453 nM | 397 nM
14 | GCGAACAUUCGCAGUGAUGUUGCGACGGAAGGAGCGCGUGAAAACGCAGGUAGGUCGCCGACAACAUUAAUUUUAAUGUGUUCGC [Arginine A K4 28] | 411 nM | 308 nM | 425 nM | 356 nM | 256 nM
15 | AAUUUAUUAACUGAUACCAGACUUAAUUAAUUGUAAAUUACUAGUGAUGUUAGUGAUUCUGUCCCUUGGCAGCAGUAUUUAUUAA [JR_ExcTheophyB_Sub011] | 98.3 nM | 120 nM | 113 nM | 139 nM | 92.5 nM
16 | UUUAUGAGGUCGGCCGCCACUGGAUUUAUGUUUGUUUCGUCUGGAUCAAAGUGAUGUUUUGAGUCCAGGACCGGGACAUUUGUUA [whbob_Ex_Tryp_B_w40] | 85.3 nM | 76.3 nM | 80.5 nM | 76.8 nM | 94 nM
17 | UGUCAUUGGUCGGCCGCCACUAUAAUAAAAGAGUGAUGUUCUAAAAGACGGACAAAAGUCUGUCGUAGGACCGGGACCGAUGACU [TrypBS 26 #SwitchBubble #StaticStem] | 1100 nM | 551 nM | 805 nM | 916 nM | 455 nM
18 | GCACACUAGUAAACUAGUGUGUUAACUGAAGGAGCGUGAAUAAUCACAGGUAGGUCGCAGUUUGUCAGUGAUGUUGACACGAGUG [Arg A SS t2] | 165 nM | 217 nM | 249 nM | 247 nM | 179 nM
19 | CAUAUAUAUAGAGGAUAUCGAGUAGAGUGAUGUUCUGCCUGGGUUGGCUCGCAAGGGCCUUCCCAGCGAGAAGGCUAUAUAUAUG [harrys-mod#1ED5.33] | 225 nM | 399 nM | 502 nM | 431 nM | 482 nM
20 | GGUUGAAGCACCCGGAGUGAUGUUCCGGAUACCAGCAAACCAACUUGCCCUUGGCAGCCGUAUAGCGUCCGGUGGGCCGAGCAUA [Beisadi] | 101 nM | 90.3 nM | 97 nM | 99.3 nM | 90 nM
21 | AGGUUUUGCGGAGGAUAUGCACUGAGGAGGAGAAUAUAGUGAUGUUAUAUAAGAGGAAGGAGAAGAGUAGAAGGCCGUGAGGUUU [SSFMNB.N] | 144 nM | 109 nM | 115 nM | 124 nM | 82.1 nM
22 | GGAAAGCCAGUGAUGUUGGCAUAAACUGAAGGAGCGCGUGAAAACGCAGGUAGGUCGCAGAACCUUGCCAACUAUAUUAUUUACC [Ex Arginine A K4 21] | 128 nM | 221 nM | 160 nM | 221 nM | 135 nM
